Target: prostate-specific membrane antigen (PSMA) (human) (UniProt Q04609)
Test: flow cytometry; J591 (1:5000) plus Alexa488 secondary on PC3-PIP cells, PSMA-negative PC3-Flu cells as reference

UniProt Q04609, sequence (Q04609 whole entry): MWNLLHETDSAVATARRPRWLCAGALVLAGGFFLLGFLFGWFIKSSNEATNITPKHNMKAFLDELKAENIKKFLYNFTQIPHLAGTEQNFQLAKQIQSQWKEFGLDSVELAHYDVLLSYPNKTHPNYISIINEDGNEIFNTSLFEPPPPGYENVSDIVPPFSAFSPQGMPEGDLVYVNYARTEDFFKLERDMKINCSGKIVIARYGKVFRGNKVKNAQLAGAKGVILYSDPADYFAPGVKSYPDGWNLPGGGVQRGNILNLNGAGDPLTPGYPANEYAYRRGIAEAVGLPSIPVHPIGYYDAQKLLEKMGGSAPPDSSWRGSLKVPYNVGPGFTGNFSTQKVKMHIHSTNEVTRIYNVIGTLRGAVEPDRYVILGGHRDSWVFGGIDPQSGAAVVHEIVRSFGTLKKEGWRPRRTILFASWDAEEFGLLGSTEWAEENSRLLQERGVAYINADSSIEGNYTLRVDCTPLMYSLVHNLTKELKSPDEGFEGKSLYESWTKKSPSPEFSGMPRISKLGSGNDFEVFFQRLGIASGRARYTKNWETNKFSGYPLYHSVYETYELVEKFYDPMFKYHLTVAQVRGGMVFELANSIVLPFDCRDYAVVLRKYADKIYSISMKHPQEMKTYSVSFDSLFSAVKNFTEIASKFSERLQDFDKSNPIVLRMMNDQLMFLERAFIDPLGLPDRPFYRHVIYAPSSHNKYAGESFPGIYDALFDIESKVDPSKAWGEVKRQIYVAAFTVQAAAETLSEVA

anti-PSMA (J591) antibody
percent of cells stained positive: 48.2%
